According to patent US20120135923A1, “Use of Melanocortins to Treat Dyslipidemia” (IPSEN PHARMA, S.A.S., priority 2009, published 2012):
Bridge positions count the residues as written; N and C are the ends. Square brackets hold non-standard residues; d marks the D form. Ends that are not written are not given here. Orn = NCCC[C@H](N)C(=O)O; Dab = NCC[C@H](N)C(=O)O; Dap = NC[C@H](N)C(=O)O

B1: c[Hydantoin(C(O)-(Glu-D-Ala))-His-D-Phe-Arg-Trp-Dap]-NH2 (peptide)
peptide: E[dA]H[dF]RW[Dap]-NH2
modifications: lactam 1-7 (inferred); also: hydantoin ring from C(O) with Glu1-D-Ala2
B2: c[Hydantoin(C(O)-(Asp-D-Ala))-His-D-Phe-Arg-Trp-Dap]-NH2 (peptide)
peptide: D[dA]H[dF]RW[Dap]-NH2
modifications: lactam 1-7; also: hydantoin ring from C(O) with Asp1-D-Ala2
B3: c[Hydantoin(C(O)-(Glu-D-Ala))-His-D-Phe-Arg-Trp-Lys]-NH2 (peptide)
peptide: E[dA]H[dF]RWK-NH2
modifications: lactam 1-7 (inferred); also: hydantoin ring from C(O) with Glu1-D-Ala2
B4: Hydantoin(C(O)-(Gly-D-Arg))-c(Cys-D-Ala-His-D-Phe-Arg-Trp-Cys)-NH2 (peptide)
peptide: G[dR]C[dA]H[dF]RWC-NH2
modifications: bridge N-2 via C(O) hydantoin; disulfide 3-9; not fully specified
B5: c[Hydantoin(C(O)-(Glu-D-Ala))-His-D-Phe-Arg-Trp-Dab]-NH2 (peptide)
peptide: E[dA]H[dF]RW[Dab]-NH2
modifications: lactam 1-7; also: hydantoin ring from C(O) with Glu1-D-Ala2
B6: c[Hydantoin(C(O)-(Asp-D-Ala))-His-D-Phe-Arg-Trp-Orn]-NH2 (peptide)
peptide: D[dA]H[dF]RW[Orn]-NH2
modifications: lactam 1-7; also: hydantoin ring from C(O) with Asp1-D-Ala2
B7: c[Hydantoin(C(O)-(Glu-D-Ala))-His-D-Phe-Arg-Trp-Orn]-NH2 (peptide)
peptide: E[dA]H[dF]RW[Orn]-NH2
modifications: lactam 1-7 (inferred); also: hydantoin ring from C(O) with Glu1-D-Ala2
B8: Ac-Arg-c(Cys-D-Ala-His-D-Phe-Arg-Trp-Cys)-NH2 (peptide)
peptide: Ac-RC[dA]H[dF]RWC-NH2
modifications: disulfide 2-8
B9: Ac-Phe-Arg-c(Cys-D-Ala-His-D-Phe-Arg-Trp-Cys)-NH2 (peptide)
peptide: Ac-FRC[dA]H[dF]RWC-NH2
modifications: disulfide 3-9
SMILES: CC(=O)N[C@@H](Cc1ccccc1)C(=O)N[C@@H](CCCNC(=N)N)C(=O)N[C@H]1CSSC[C@@H](C(N)=O)NC(=O)[C@H](Cc2c[nH]c3ccccc23)NC(=O)[C@H](CCCNC(=N)N)NC(=O)[C@@H](Cc2ccccc2)NC(=O)[C@H](Cc2c[nH]cn2)NC(=O)[C@@H](C)NC1=O
B10: Hydantoin(C(O)-(Ile-Gly))-c(Cys-D-Ala-His-D-Phe-Arg-Trp-Cys)-NH2 (peptide)
peptide: IGC[dA]H[dF]RWC-NH2
modifications: disulfide 3-9; also: hydantoin ring from C(O) with Ile1-Gly2
B11: Hydantoin(C(O)-(Arg-Gly))-c(Cys-D-Ala-His-D-Phe-Arg-Trp-Cys)-NH2 (peptide)
peptide: RGC[dA]H[dF]RWC-NH2
modifications: disulfide 3-9; also: hydantoin ring: C(O) bridging Arg-Gly
B12: Hydantoin(C(O)-(Leu-Gly))-c(Cys-D-Ala-His-D-Phe-Arg-Trp-Cys)-NH2 (peptide)
peptide: LGC[dA]H[dF]RWC-NH2
modifications: disulfide 3-9; also: hydantoin ring from C(O) with Leu1-Gly2
B13: Hydantoin(C(O)-(Val-Gly))-c(Cys-D-Ala-His-D-Phe-Arg-Trp-Cys)-NH2 (peptide)
peptide: VGC[dA]H[dF]RWC-NH2
modifications: disulfide 3-9; also: hydantoin ring from C(O) with Val1-Gly2
B14: Hydantoin(C(O)-(Gly-Arg))-c(Cys-D-Ala-His-D-Phe-Arg-Trp-Cys)-NH2 (peptide)
peptide: GRC[dA]H[dF]RWC-NH2
modifications: disulfide 3-9; also: hydantoin ring from C(O) with Gly1-Arg2
B15: Ac-Trp-Arg-c(Cys-D-Ala-His-D-Phe-Arg-Trp-Cys)-NH2 (peptide)
peptide: Ac-WRC[dA]H[dF]RWC-NH2
modifications: disulfide 3-9
SMILES: CC(=O)N[C@@H](Cc1c[nH]c2ccccc12)C(=O)N[C@@H](CCCNC(=N)N)C(=O)N[C@H]1CSSC[C@@H](C(N)=O)NC(=O)[C@H](Cc2c[nH]c3ccccc23)NC(=O)[C@H](CCCNC(=N)N)NC(=O)[C@@H](Cc2ccccc2)NC(=O)[C@H](Cc2c[nH]cn2)NC(=O)[C@@H](C)NC1=O

Each binder was assayed against human melanocortin receptor subtype 4 (hMC4-R) (human) (UniProt P32245) (assay: [125I]-NDP-α-MSH competition, membranes).
human melanocortin receptor subtype 4 (hMC4-R) (human), sequence (P32245 whole entry): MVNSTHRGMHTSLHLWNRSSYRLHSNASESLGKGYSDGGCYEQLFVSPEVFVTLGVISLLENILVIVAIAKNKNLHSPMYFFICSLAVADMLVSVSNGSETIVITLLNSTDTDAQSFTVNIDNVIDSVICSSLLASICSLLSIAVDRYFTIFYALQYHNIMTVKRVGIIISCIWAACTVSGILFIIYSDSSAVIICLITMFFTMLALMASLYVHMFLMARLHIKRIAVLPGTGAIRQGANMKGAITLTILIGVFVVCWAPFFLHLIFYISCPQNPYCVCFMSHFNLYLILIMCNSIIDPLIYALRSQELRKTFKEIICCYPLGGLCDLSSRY

Binder	Ki [nM]
B1	4.97
B2	19.9
B3	45.2
B4	6.04
B5	12.7
B6	7.81
B7	52.4

Each binder was assayed against human melanocortin receptor subtype 5 (hMC5-R) (human) (UniProt P33032) (assay: [125I]-NDP-α-MSH competition, membranes).
human melanocortin receptor subtype 5 (hMC5-R) (human), sequence (P33032 whole entry): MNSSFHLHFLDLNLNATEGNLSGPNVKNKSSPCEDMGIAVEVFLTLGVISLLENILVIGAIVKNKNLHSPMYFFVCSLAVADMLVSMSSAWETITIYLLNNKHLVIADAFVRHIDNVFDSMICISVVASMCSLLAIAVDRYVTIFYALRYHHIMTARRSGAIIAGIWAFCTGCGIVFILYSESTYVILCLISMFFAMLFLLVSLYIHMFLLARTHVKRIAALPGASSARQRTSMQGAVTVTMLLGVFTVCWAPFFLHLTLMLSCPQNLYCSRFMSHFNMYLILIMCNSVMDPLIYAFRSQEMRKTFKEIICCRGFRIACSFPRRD

Binder	Ki [nM]
B4	914
B5	877
B6	6400

What follows are binders tested against human melanocortin receptor subtype 3 (hMC3-R) (human) (UniProt P41968) (assay: [125I]-NDP-α-MSH competition, membranes).
human melanocortin receptor subtype 3 (hMC3-R) (human), sequence (P41968 whole entry): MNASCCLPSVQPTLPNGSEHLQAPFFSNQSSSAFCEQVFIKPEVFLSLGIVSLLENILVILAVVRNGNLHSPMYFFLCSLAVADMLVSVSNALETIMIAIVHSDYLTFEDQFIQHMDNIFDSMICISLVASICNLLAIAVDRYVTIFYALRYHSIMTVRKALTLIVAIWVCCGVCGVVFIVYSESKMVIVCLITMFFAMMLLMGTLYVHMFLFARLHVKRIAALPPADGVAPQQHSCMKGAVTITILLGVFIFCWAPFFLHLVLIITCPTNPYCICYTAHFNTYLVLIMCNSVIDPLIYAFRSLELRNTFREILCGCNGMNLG

Binder	Ki [nM]
B1	863
B2	1820
B3	1920
B4	29.2
B5	90.5
B6	576
B7	2840

Each binder was assayed against human melanocortin receptor subtype 1 (hMC1-R) (human) (UniProt Q01726) (assay: [125I]-NDP-α-MSH competition, membranes).
human melanocortin receptor subtype 1 (hMC1-R) (human), sequence (Q01726 whole entry): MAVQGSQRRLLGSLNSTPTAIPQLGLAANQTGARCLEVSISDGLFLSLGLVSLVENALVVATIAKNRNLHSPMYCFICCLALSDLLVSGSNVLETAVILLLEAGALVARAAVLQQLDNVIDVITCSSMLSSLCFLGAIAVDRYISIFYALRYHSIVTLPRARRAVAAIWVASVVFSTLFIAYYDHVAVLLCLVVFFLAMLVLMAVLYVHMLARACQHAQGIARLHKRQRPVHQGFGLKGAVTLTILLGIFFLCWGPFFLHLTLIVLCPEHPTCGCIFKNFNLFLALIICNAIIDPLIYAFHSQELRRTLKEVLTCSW

Binder	Ki [nM]
B1	16.4
B2	66.6
B3	72.6
B4	3.51
B5	28
B6	37.7
B7	60.4

Each binder was assayed against hMC5-R (human), P33032 (assay: competition with [125I]-NDP-α-MSH, CHO-K1 membranes).
hMC5-R (human), P33032, sequence (P33032 whole entry): as the sequence (P33032 whole entry) above

Binder	Ki [nM]
B8	430

These binders were tested against human melanocortin receptor subtype 3 (hMC3-R) (human), P41968 (assay: [125I]-NDP-α-MSH competition, membranes).
human melanocortin receptor subtype 3 (hMC3-R) (human), P41968, sequence (P41968 whole entry): as the sequence (P41968 whole entry) above

Binder	Ki [nM]
B9	14.8
B10	194
B11	41.3
B12	331
B13	160
B14	1.7
B15	42

The binders below were run against human melanocortin receptor subtype 1 (hMC1-R) (human), Q01726 (assay: [125I]-NDP-α-MSH competition, membranes).
human melanocortin receptor subtype 1 (hMC1-R) (human), Q01726, sequence (Q01726 whole entry): as the sequence (Q01726 whole entry) above

Binder	Ki [nM]
B9	1.48
B10	11.6
B11	2.65
B12	19.3
B13	15.3
B14	1.14
B15	4.7

The binders below were run against human melanocortin receptor subtype 4 (hMC4-R) (human), P32245 (assay: [125I]-NDP-α-MSH competition, membranes).
human melanocortin receptor subtype 4 (hMC4-R) (human), P32245, sequence (P32245 whole entry): as the sequence (P32245 whole entry) above

Binder	Ki [nM]
B9	2.34
B10	11.5
B11	4.17
B12	26.7
B13	8.66
B14	4.53
B15	2.25

These binders were tested against human melanocortin receptor subtype 5 (hMC5-R) (human), P33032 (assay: [125I]-NDP-α-MSH competition, membranes).
human melanocortin receptor subtype 5 (hMC5-R) (human), P33032, sequence (P33032 whole entry): as the sequence (P33032 whole entry) above

Binder	Ki [nM]
B9	491
B10	28.9
B11	650
B12	44.6
B13	33.4
B14	783
B15	1470

The binders below were run against hMC1-R (human) (UniProt Q01726) (assay: cell-based or functional assay).
hMC1-R (human), sequence (Q01726 whole entry): as the sequence (Q01726 whole entry) above

Binder	cAMP EC50 [nM]
B1	56.7
B6	56.6

What follows are binders tested against hMC4-R (human) (UniProt P32245) (assay: cell-based or functional assay).
hMC4-R (human), sequence (P32245 whole entry): as the sequence (P32245 whole entry) above

Binder	cAMP EC50 [nM]
B1	0.182
B2	2.12
B6	4.5
B7	4.94

These binders were tested against hMC3-R (human) (UniProt P41968) (assay: cell-based or functional assay).
hMC3-R (human), sequence (P41968 whole entry): as the sequence (P41968 whole entry) above

Binder	cAMP EC50 [nM]
B1	18.2
B2	49.3
B6	88.6
B7	39.2

The binders below were run against hMC5-R (human) (UniProt P33032) (assay: cell-based or functional assay).
hMC5-R (human), sequence (P33032 whole entry): as the sequence (P33032 whole entry) above

Binder	cAMP EC50 [nM]
B1	> 10000
B6	9300
